First the molecules themselves.
T1: wild type cynomolgus monkey CD40 Fc fusion (cynomolgus monkey; human)
T1 construct: also called wt-cyno-CD40; wt-cCD40; not shown: human IgG1 Fc
T1 chain: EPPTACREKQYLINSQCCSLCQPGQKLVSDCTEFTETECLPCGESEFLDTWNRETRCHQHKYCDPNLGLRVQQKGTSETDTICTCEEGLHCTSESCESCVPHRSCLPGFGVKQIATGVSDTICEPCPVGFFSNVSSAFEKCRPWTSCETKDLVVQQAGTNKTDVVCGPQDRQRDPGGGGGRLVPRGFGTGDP

T2: human CD40 (H76R, W109L, L121P) Fc fusion (human)
T2 construct: As m1 with H76R, W109L and L121P; also called hCD40-M5; not shown: human IgG1 Fc
T2 chain: T1 chain with S95A, L106S, R142H, Q172L

T3: human CD40 (H76R, W109L, L121P) Fc fusion (human)
T3 construct: Same construct as wt-hCD40 with H76R, W109L and L121P; also called hCD40-M5; hCD40-M5 (H76R, W109L, L121P); not shown: human IgG1 Fc
T3 chain: T1 chain with S95A, L106S, R142H, Q172L

T4: wild type cynomolgus monkey CD40 Fc fusion (cynomolgus monkey (Macaca …))
T4 construct: also called wt-cCD40; wt-cyno-CD40; not shown: human IgG1 Fc
T4 chain: T1 chain

B1: BMS3h-37-2 (other)
VH: EVQLLESGGGLVQPGGSLRLSCAASGFTFEWYEMQWVRRAPGKGLEWVSAISGDGYRTYYADSVKGRFTISRDNSKNTLYLQMNSLRAEDTAVYYCAKELGYFDYWGRGTLVTVSS
notes: domain antibody (dAb), single VH domain
B2: BMS3h-37-11 (other)
VH: B1 VH with R39K, W106R
notes: as for B1
B3: BMS3h-38-215 (other)
VH: EVQLLASGGGLVQPGGSLRLSCAASGFTFEEEEMIWVRQAPGKGLEWVSAISGLGWSTYYADSVKGRFTISRDNSKNTLYLQMNSLRAEDTAVYYCGKEPFRYDYWGQGTLVTVSS
notes: as for B1
B4: BMS3h-38-211 (other)
VH: B3 VH with G53R, L54Q, W56G
notes: as for B1
B5: BMS3h-38-217 (other)
VH: B3 VH with G53R, L54R, W56Y
notes: as for B1
B6: BMS3h-37-2 (other)
VH: B1 VH
notes: Human domain antibody (dAb), single VH domain
B7: BMS3h-37-11 (other)
VH: B1 VH with R39K, W106R
notes: as for B6
B8: BMS3h-38-2 (other)
VH: B3 VH with L54S, W56G
notes: as for B6
B9: BMS3h-38-215 (other)
VH: B3 VH
notes: as for B6
B10: BMS3h-38-211 (other)
VH: B3 VH with G53R, L54Q, W56G
notes: as for B6
B11: BMS3h-38-217 (other)
VH: B3 VH with G53R, L54R, W56Y
notes: as for B6
B12: BMS3h-56-1 (other)
VH: EVQLLESGGGLVQPGGSLRLSCAASGFTFRDYEMWWVRQAPGKGLERVSAINPQGTRTYYADSVKGRFTISRDNSKNTLYLQMNSLRAEDTAVYYCAKLPFTFEDWGQGTLVTVSS
notes: Anti-human CD40 domain antibody (dAb), single VH domain
B13: BMS3h-56-2 (other)
VH: B12 VH with E104D
notes: as for B12
B14: BMS3h-56-262 (other)
VH: B12 VH with F101Q, T102L, E104H, W106R
notes: domain antibody (dAb): single human VH domain
B15: BMS3h-56-261 (other)
VH: B12 VH with T102F, E104Q, D105E
notes: as for B14
B16: BMS3h-56-270 (other)
VH: B12 VH with F101T, T102L, E104Q
notes: as for B14
B17: BMS3h-56-269 (other)
VH: B12 VH with T102R, E104S, W106R
notes: as for B14
B18: BMS3h-56-265 (other)
VH: B12 VH with F101Q, T102L, E104Q
notes: as for B14
B19: BMS3h-56-266 (other)
VH: B12 VH with T102F, E104H, D105E
notes: as for B14
B20: BMS3h-56-258 (other)
VH: B12 VH with T102Y, E104H, D105E
notes: as for B14

Positions count from the first letter of the chain named. “And” between values parts separate entries of the source, which are not always exact repeats. Equal entries are not always repeated. Bounds are passed on as bounds.

The first test has as its target T5, human CD40 (H76R) Fc fusion (human, UniProt P25942 21-193).
T5 construct: As m1 with H76R; also called hCD40-M1; not shown: human IgG1 Fc
Nature of the test: SPR ProteOn XPR36, CD40-Fc captured, dAb analyte.
B1: the Kd – broadly, a measure of binding affinity in units of concentration – was found to be 2.6 nM.

In turn, B2 came in with a Kd of 2.4 nM.

Regarding B3, binding was characterised by a dissociation constant (Kd) of 3 nM.

The molecule B4 showed a Kd of 4 nM.

On to B5, for which the Kd stood at 3.4 nM.

The next test has as its target T6, wild type human CD40 Fc fusion (human, UniProt P25942 21-193).
T6 construct: also called wt-hCD40; not shown: human IgG1 Fc
Nature of the test: SPR ProteOn XPR36, CD40-Fc captured, dAb analyte.
With B1, the Kd came to 2 nM.

For B2, the Kd is 1.9 nM and 2.3 nM.

Take B3: the Kd was 2.1 nM and 6 nM.

As to B4, the Kd is 3.3 nM and 6.1 nM.

For B5, the Kd was 2.3 nM and 2.4 nM.

A further test addresses T1, wild type cynomolgus monkey CD40 Fc …. Description: SPR ProteOn XPR36.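 Note: surface plasmon resonance with CD40-Fc fusions captured through their Fc on an anti-human IgG chip, sensorgrams reference-subtracted against surfaces lacking CD40-Fc.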
Description: (§1) Assays were performed on a BioRad ProteOn XPR36 SPR instrument. The SPR surfaces were prepared by immobilizing 8 μg/ml anti-human IgG(Fc) antibody (Biacore/GE Healthcare) in 10 mM sodium acetate pH 4.5 on a BioRad GLC sensor chip using standard ethyl(dimethylaminopropyl) carbodiimide (EDC)/N-hydroxysuccinimide (NHS) chemistry, with ethanolamine blocking. The running buffer for immobilization and kinetic binding analysis was 10 mM sodium phosphate, 130 mM sodium chloride, 0.05% tween 20, pH 7.1. CD40-Fc fusion proteins at concentrations of 20 μg/ml were captured in the vertical orientation on these surfaces via the Fc tail, and reference surfaces lacking CD40-Fc proteins were used for reference subtraction. […] The surfaces were regenerated in both horizontal and vertical orientations with 30 s pulses of 3 M MgCl₂ followed by running buffer at 60 μl/min. Sensogram data was double-referenced and then fitted to a 1:1 Langmuir model using BioRad ProteOn Manager V.2.1.0.38 software, to determine the association rate constant (ka), the dissociation rate constant (kd), and the equilibrium dissociation constant (KD).
Turning to B1, the binding result is “no binding (tested: 405 nM)”.

On to B2, for which the binding result is on record as “no binding (tested: 405 nM)”.

With B3, the binding result is “no binding (tested: 405 nM)”.

As for B4, the binding result is “no binding (tested: 405 nM)”.

On to B5, for which the binding result is reported as “no binding (tested: 405 nM)”.

In another test the target is T7, human CD40 (W109L, L121P) Fc fusion (human, UniProt P25942 21-193).
T7 construct: As m1 with W109L and L121P; also called hCD40-M4; not shown: human IgG1 Fc
Nature of the test: SPR ProteOn XPR36.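 Note: surface plasmon resonance with CD40-Fc fusions captured through their Fc on an anti-human IgG chip, sensorgrams reference-subtracted against surfaces lacking CD40-Fc.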
As to B1, the binding result is reported as “no binding (tested: 405 nM)”.

For the molecule B2, the binding result is listed as “no binding (tested: 405 nM)”.

Turning to B3, the binding result is reported as “no binding (tested: 405 nM)”.

Take B4: the binding result was “no binding (tested: 405 nM)”.

B5: the binding result was “no binding (tested: 405 nM)”.

For another test, the target named is T2, human CD40 (H76R, W109L, L121P) Fc …. Description: SPR ProteOn XPR36.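 Note: surface plasmon resonance with CD40-Fc fusions captured through their Fc on an anti-human IgG chip, sensorgrams reference-subtracted against surfaces lacking CD40-Fc.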
Description: as §1
In the case of B1, the binding result is on record as “no binding (tested: 405 nM)”.

On to B2, for which the binding result was “no binding (tested: 405 nM)”.

For the molecule B3, the binding result is recorded as “no binding (tested: 405 nM)”.

Regarding B4, the binding result is “no binding (tested: 405 nM)”.

B5: the binding result was “no binding (tested: 405 nM)”.

The next test deals with T8, human CD40 (W109R) Fc fusion (Chimpanzee CD40) (human, UniProt P25942 21-193).
T8 construct: As m1 with W109R (residue of chimpanzee CD40); also called hCD40-M3; not shown: human IgG1 Fc
Description: SPR ProteOn XPR36.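 Note: surface plasmon resonance with CD40-Fc fusions captured through their Fc on an anti-human IgG chip, sensorgrams reference-subtracted against surfaces lacking CD40-Fc.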
Take B1: the binding result is “no binding (tested: 405 nM)”.

For the molecule B2, the binding result was “no binding (tested: 405 nM)”.

B3: the binding result was “no binding (tested: 405 nM)”.

For the molecule B4, the binding result is “no binding (tested: 405 nM)”.

Consider B5, for which the binding result is listed as “no binding (tested: 405 nM)”.

The next test addresses T9, human CD40 (H76R) Fc fusion (human, UniProt P25942 21-193).
T9 construct: Built as wt-hCD40 with the printed substitution; also called hCD40-M1; hCD40 M1 (H76R)
Description: SPR (ProteOn XPR36), dAb over CD40-Fc captured by anti-human IgG(Fc).
Description: as §1
B6 showed a Kd of less than 10 nM.

In the case of B7, the Kd was less than 10 nM.

The molecule B8 displayed a Kd of less than 10 nM.

Molecule B9 returned a Kd of less than 10 nM.

As to B10, the Kd was less than 10 nM.

Molecule B11 gave a Kd of less than 10 nM.

The target in another test is T10, wild type human CD40 Fc fusion (human, UniProt P25942 21-193).
T10 construct: also called wt-hCD40
Described as above.
Description: as §1
For B6, the Kd was less than 10 nM.

B7: the Kd was less than 10 nM.

B8 yielded a Kd of less than 10 nM.

With B9, the Kd was less than 10 nM.

Take B10: the Kd is less than 10 nM.

The molecule B11 yielded a Kd of less than 10 nM.

The target of another test is T3, human CD40 (H76R, W109L, L121P) Fc …. Description: SPR, ProteOn XPR36; CD40-Fc captured, dAb analyte. (In general: Surface plasmon resonance follows binding to a sensor surface in real time, without labels.)
Description: as §1
Regarding B12, the binding result is recorded as “no binding (tested: dAb tested up to 405 nM)”.

For the molecule B13, the binding result is “no binding (tested: dAb tested up to 405 nM)”.

The target of the next test is T11, human CD40 (W109L, L121P) Fc fusion (human, UniProt P25942 21-193).
T11 construct: Same construct as wt-hCD40 with W109L and L121P; also called hCD40-M4; hCD40 M4 (W109L, L121P); not shown: human IgG1 Fc
Nature of the test: SPR, ProteOn XPR36; CD40-Fc captured, dAb analyte.
Consider B12, for which the binding result was “no binding (tested: dAb tested up to 405 nM)”.

As to B13, the binding result was “no binding (tested: dAb tested up to 405 nM)”.

Another test has as its target T4, wild type cynomolgus monkey CD40 Fc …. Description: SPR, ProteOn XPR36; CD40-Fc captured, dAb analyte.
Description: as §1
Consider B12, for which the binding result is given as “no binding (tested: dAb tested up to 405 nM)”.

The next test deals with T12, human CD40 (BMS, CY24FEB06-01) (human, UniProt P25942 21-193).
T12 construct: Soluble human CD40 reagent of the ELISA RBA
Description: ELISA RBA, competition with IZ-CD40L for soluble human CD40.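 Note: Neutravidin-coated 384-well plates, dAb–human CD40 complex incubated 2 h at room temperature, read-out as absorbance at 450 nm.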 In general terms: In an ELISA, binding on a coated surface is turned into a signal by an enzyme label.
Description: Clear walled High Bind, 384-well plates (Corning, UK) were coated with 25 μl of 1 μg/ml Neutravidin in 0.2 M carbonate-bicarbonate buffer, pH 9.4 overnight at 4° C. The following day, assay plates were washed with 0.1% (v/v) Tween PBS buffer, blocked with 1% (w/v) BSA in PBS for 1 hour at room temperature and washed again. […] Following washing of the assay plate, the dAb:human CD40 complex was incubated in the assay plate at room temperature for 2 hours with gentle agitation. […] Absorbance signal was measured using a SpectraMax® M5e plate reader (Molecular Devices) at 450 nm following neutralization with 1M HCl solution.
With B14, the EC50 (usually the concentration that produces a half-maximal response) was 4 nM.

In turn, B15 displayed an EC50 of 5.7 nM.

Molecule B16 showed an EC50 of 11.3 nM.

The molecule B17 came in with an EC50 of 3.3 nM.

Take B18: the EC50 turned out to be 18.8 nM.

B19 came in with an EC50 of 3.8 nM.

In turn, B20 displayed an EC50 of 5.2 nM.

Another test has as its target human CD40 on RAMOS human B cells (human, UniProt P25942 21-277). Description: cell-based or functional assay.
Turning to B14, the “EC50 ICAM1 cell assay” value came out at 135 nM.

As for B15, the “EC50 ICAM1 cell assay” value worked out at 42.4 nM.

Consider B16, for which the “EC50 ICAM1 cell assay” value came to 93.8 nM.

Regarding B17, the “EC50 ICAM1 cell assay” value worked out at 34.2 nM.

For the molecule B18, the “EC50 ICAM1 cell assay” value stood at 289 nM.

For the molecule B19, the “EC50 ICAM1 cell assay” value is 31.9 nM.

Regarding B20, the “EC50 ICAM1 cell assay” value turned out to be 23 nM.

The target in another test is T13, human CD40 expressed on stably transfected CHO-DG44 cells (human, UniProt P25942 21-277).
T13 construct: Cell-surface human CD40 in the CHO cell RBA; also called CHO-CD40; human CD40 CHO cells
Description: CHO-CD40 cell RBA, competition with IZ-CD40L (FMAT).
Description: The mixture was incubated in the absence of light for 6 hours.
In turn, B14 returned an EC50 of 42 nM.

B15: the EC50 came out at 17 nM.

B16 returned an EC50 of 91 nM.

The molecule B17 displayed an EC50 of 24 nM.

For B18, the EC50 turned out to be 88 nM.

The molecule B19 displayed an EC50 of 27 nM.

As to B20, the EC50 was 15 nM.
